Assay results from IntAct's records for PubMed 16762039.

B1: Hypermethylated in cancer 1 protein (Homo sapiens), Q14526 (parent)
chain: MTFPEADILLKSGECAGQTMLDTMEAPGHSRQLLLQLNNQRTKGFLCDVIIVVQNALFRAHKNVLAASSAYLKSLVVHDNLLNLDHDMVSPAVFRLVLDFIYTGRLADGAEAAAAAAVAPGAEPSLGAVLAAASYLQIPDLVALCKKRLKRHGKYCHLRGGGGGGGGYAPYGRPGRGLRAATPVIQACYPSPVGPPPPPAAEPPSGPEAAVNTHCAELYASGPGPAAALCASERRCSPLCGLDLSKKSPPGSAAPERPLAERELPPRPDSPPSAGPAAYKEPPLALPSLPPLPFQKLEEAAPPSDPFRGGSGSPGPEPPGRPDGPSLLYRWMKHEPGLGSYGDELGRERGSPSERCEERGGDAAVSPGGPPLGLAPPPRYPGSLDGPGAGGDGDDYKSSSEETGSSEDPSPPGGHLEGYPCPHLAYGEPESFGDNLYVCIPCGKGFPSSEQLNAHVEAHVEEEEALYGRAEAAEVAAGAAGLGPPFGGGGDKVAGAPGGLGELLRPYRCASCDKSYKDPATLRQHEKTHWLTRPYPCTICGKKFTQRGTMTRHMRSHLGLKPFACDACGMRFTRQYRLTEHMRIHSGEKPYECQVCGGKFAQQRNLISHMKMHAVGGAAGAAGALAGLGGLPGVPGPDGKGKLDFPEGVFAVARLTAEQLSLKQQDKAAAAELLAQTTHFLHDPKVALESLYPLAKFTAELGLSPDKAAEVLSQGAHLAAGPDGRTIDRFSPT

Variants of: B1
Conditions: with ctbp2_mouse Ctbp2, P56546
ctbp2_mouse Ctbp2, P56546, sequence (P56546 whole entry): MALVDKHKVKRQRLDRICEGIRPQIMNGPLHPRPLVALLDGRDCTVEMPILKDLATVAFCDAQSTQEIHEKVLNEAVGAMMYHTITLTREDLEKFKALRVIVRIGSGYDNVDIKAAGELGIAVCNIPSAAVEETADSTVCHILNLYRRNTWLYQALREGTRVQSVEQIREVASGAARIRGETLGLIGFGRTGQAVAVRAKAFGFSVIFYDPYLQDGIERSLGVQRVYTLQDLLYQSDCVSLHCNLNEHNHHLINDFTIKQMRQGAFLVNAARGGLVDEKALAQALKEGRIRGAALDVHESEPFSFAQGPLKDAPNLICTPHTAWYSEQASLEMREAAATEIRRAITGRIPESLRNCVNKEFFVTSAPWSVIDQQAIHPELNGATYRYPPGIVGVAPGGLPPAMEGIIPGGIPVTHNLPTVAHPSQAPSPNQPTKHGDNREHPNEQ

effect of a mutation on the interaction	Variant
disrupting interaction	L244A

Variants of: B1
Conditions: with ctbp1_mouse Ctbp1, O88712

effect of a mutation on the interaction	Variant
disrupting interaction	L244A
